Experimental data published in article PMC6677831, “X-ray Crystallographic Structure and Oligomerization of Gloeobacter Rhodopsin” (Scientific Reports, 2019).
Blank lines part the entries; values can stand above or below the molecule they belong to.

Tests used:
[1] = target: T1, Gloeobacter rhodopsin (GR) (Gloeobacter violaceus, UniProt Q7NP59); assay: X-ray crystal structure, […] A; assay type: binding; details: covalent, protonated Schiff base at Lys257; dark state; bicelle crystals, pH 3.4, 100 K
T1 construct: gene gll0198; wild type, C-terminal 6xHis tag, expressed in E. coli C43(DE3) with added retinal; 33 kDa; monomer at pH 3.0, pentamer at pH 8.0 in DDM

[2] = target: Mastigocladopsis repens halorhodopsin (Mastigocladopsis repens); assay: not stated; unpublished observation of the authors
[3] = target: the molecule itself; assay: SEC; Superdex 200 10/300 GL; 20 mM Tris-HCl pH 8.0, 300 mM NaCl, 0.04% DDM
[4] = target: the molecule itself; assay: DEER spectroscopy; Q-band, 80 K, 20% deuterated glycerol, GR-67R1 in detergent micelles at pH 8.0; distances between spin labels of protomers

Molecule: CC1=C(/C=C/C(C)=C/C=C/C(C)=C/C=O)C(C)(C)CCC1 [all-trans-retinal]
X-ray crystal structure, 2.0 A [1]: the all-trans-retinal chromophore is covalently bound to the opsin protein moiety via a Schiff base

stoichiometry N [2]: 3
Molecule: Mastigocladopsis repens halorhodopsin (natural protein)

B1: Gloeobacter rhodopsin (natural protein, Gloeobacter violaceus PCC 7421)
chain: MLMTVFSSAPELALLGSTFAQVDPSNLSVSDSLTYGQFNLVYNAFSFAIAAMFASALFFFSAQALVGQRYRLALLVSAIVVSIAGYHYFRIFNSWDAAYVLENGVYSLTSEKFNDAYRYVDWLLTVPLLLVETVAVLTLPAKEARPLLIKLTVASVLMIATGYPGEISDDITTRIIWGTVSTIPFAYILYVLWVELSRSLVRQPAAVQTLVRNMRWLLLLSWGVYPIAYLLPMLGVSGTSAAVGVQVGYTIADVLAKPVFGLLVFAIALVKTKADQESSEPHAAIGAAANKSGGSLIS
modifications: all-trans-retinal covalently bound to Lys257 via a protonated Schiff base
notes: Gloeobacter rhodopsin (GR), light-driven proton pump of Gloeobacter violaceus PCC 7421; 33 kDa; Membrane protein in detergent micelles (0.04% DDM) in the oligomerisation experiments; also called GR; wild-type GR; source: E. coli C43(DE3), purified (TALON Co2+ column, Superdex 200) in OG or DDM
binding result [3]: binds

B2: spin-labeled GR-67R1 (natural protein, Gloeobacter violaceus PCC 7421)
chain: MLMTVFSSAPELALLGSTFAQVDPSNLSVSDSLTYGQFNLVYNAFSFAIAAMFASALFFFSAQALVCQRYRLALLVSAIVVSIAGYHYFRIFNSWDAAYVLENGVYSLTSEKFNDAYRYVDWLLTVPLLLVETVAVLTLPAKEARPLLIKLTVASVLMIATGYPGEISDDITTRIIWGTVSTIPFAYILYVLWVELSRSLVRQPAAVQTLVRNMRWLLLLSWGVYPIAYLLPMLGVSGTSAAVGVQVGYTIADVLAKPVFGLLVFAIALVKTKADQESSEPHAAIGAAANKSGGSLIS
modifications: R1 nitroxide side chain at Cys67; all-trans-retinal bound to Lys257 via a Schiff base
notes: Gloeobacter rhodopsin (GR) of Gloeobacter violaceus PCC 7421 with G67C, spin-labeled at 67; also called spin labeled G67C mutant of GR
stoichiometry N [4]: 5
